Measurements published in patent US20200377608A1 (ADAGENE, published 2020).

Target: T1, Recombinant human CD137 protein (human, UniProt Q07011 24-186)
T1 construct: also called CD137 receptor; 4-1BB
Test: competition ELISA against biotinylated CD137 ligand on coated human CD137

- binding result: binds
B1: αCD137-AB1 (antibody, human IgG4 S228P, kappa, V domains shown)
VH: EVQLVESGGGLVQPGGSLRLSCAASGFSLSTGGVGVGWIRQAPGKGLEWLALIDWADDKYYSPSLKSRLTISRDNSKNTLYLQLNSLRAEDTAVYYCARGGSDTVIGDWFAYWGQGTLVTVSS
VL: DIQLTQSPSSLSASVGDRVTITCRASQSIGSYLAWYQQKPGKAPKLLIYDASNLETGVPSRFSGSGSGTDFTLTISSLQPEDFATYYCQQGYYLWTFGQGTKVEIKR
notes: also called AG10131; Hit ID 5365
